1 molecule from PMC11352979, “The mycobacterium lipid transporter MmpL3 is dimeric in detergent solution, SMALPs and reconstituted nanodiscs†” (RSC Chemical Biology, 2024) can be followed below.

As a reminder, the stoichiometry N is a count of units in the complex or per binding partner.

Assay [1] has as its target T1, C-terminally truncated Mycobacterium smegmatis MmpL3 (ΔC Ms-MmpL3, aa 1–773) (M. smegmatis), A0QP27.
T1 chain: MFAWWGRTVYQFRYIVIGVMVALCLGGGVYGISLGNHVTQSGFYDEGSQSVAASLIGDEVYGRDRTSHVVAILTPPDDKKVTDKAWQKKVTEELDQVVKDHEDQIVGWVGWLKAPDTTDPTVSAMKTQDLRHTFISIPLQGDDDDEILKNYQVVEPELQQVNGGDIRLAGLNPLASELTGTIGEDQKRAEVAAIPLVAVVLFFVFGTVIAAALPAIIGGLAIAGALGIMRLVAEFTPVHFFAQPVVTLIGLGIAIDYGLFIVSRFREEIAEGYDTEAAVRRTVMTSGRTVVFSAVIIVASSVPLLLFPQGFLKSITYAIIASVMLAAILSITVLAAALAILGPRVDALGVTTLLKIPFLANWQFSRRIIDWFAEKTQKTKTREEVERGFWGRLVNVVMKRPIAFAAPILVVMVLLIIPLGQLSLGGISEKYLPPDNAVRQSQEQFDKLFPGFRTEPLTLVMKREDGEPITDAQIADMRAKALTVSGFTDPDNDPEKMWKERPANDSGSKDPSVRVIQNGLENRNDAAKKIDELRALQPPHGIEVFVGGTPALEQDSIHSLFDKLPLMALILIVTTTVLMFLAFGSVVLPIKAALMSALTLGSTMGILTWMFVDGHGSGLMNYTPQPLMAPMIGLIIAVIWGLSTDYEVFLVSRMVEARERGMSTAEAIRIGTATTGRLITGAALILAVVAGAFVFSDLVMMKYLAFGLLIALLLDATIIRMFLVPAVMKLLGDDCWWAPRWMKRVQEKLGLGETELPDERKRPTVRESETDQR
The experiment in a line: native MS; LILBID-MS of the high sucrose percentage (HSP, 16-18% sucrose) fraction of POPC/MSP1E3D1 nanodiscs; 20 mM Tris HCl pH 8.0; negative mode; low and high laser energies. The following applies: remark: other sources report otherwise.

For assay [2], the target named is T1, C-terminally truncated Mycobacterium …. The experiment in a line: AUC; sedimentation velocity of the SEC peaks of protein in SMALPs; 0.1-0.5 mg/mL, 20 mM Tris HCl, 150 mM NaCl, pH 8.0, 20 °C; c(s) distribution; the mass includes lipid and polymer. The following applies: remark: other sources report otherwise.

B1: C-terminally truncated Mycobacterium smegmatis MmpL3 (ΔC Ms-MmpL3, aa 1–773), A0QP27 1-773 (domain or fragment)
chain: T1 chain
B1: the stoichiometry N in assay [1] and in assay [2] was 2 each time.
